Drawing on US20220098303A1 (GlaxoSmithKline, published 2022), this text covers Kd for one molecule.

In the experiment the target is cynomolgus PD-1 (cynomolgus). In words: kinetic analysis (bio-light interferometry).

The Kd is the concentration at which binding is half-saturated. A lower Kd goes with tighter binding.

B1: Pembrolizumab (antibody, V domains shown)
VH: QVQLVQSGVEVKKPGASVKVSCKASGYTFTNYYMYWVRQAPGQGLEWMGGINPSNGGTNFNEKFKNRVTLTTDSSTTTAYMELKSLQFDDTAVYYCARRDYRFDMGFDYWGQGTTVTVSS
VL: EIVLTQSPATLSLSPGERATLSCRASKGVSTSGYSYLHWYQQKPGQAPRLLIYLASYLESGVPARFSGSGSGTDFTLTISSLEPEDFAVYYCQHSRDLPLTFGGGTKVEIKR
notes: also called MK3475
The molecule B1 showed a Kd of 0.118 nM. That is a sub-nanomolar value.
